Assay [1] has as its target M1-linked Ub4 (UniProt P0CG48). Nature of the assay: NMR titration.
The target of assay [2] is HOTag6-G10-Ub. Nature of the assay: NMR titration.
The target of assay [3] is M1-linked Ub4 (UniProt P0CG48). Nature of the assay: fluorescence polarisation. A general note: Polarisation of emitted light reports the rotation of a fluorescent probe.
For assay [4], the target named is HOTag6-G10-Ub. The assay can be described thus: fluorescence polarisation.
The next assay addresses ubiquitin (Ub) (UniProt P0CG48 1-76). Nature of the assay: fluorescence polarisation.

M1-linked Ub4, sequence (P0CG48 1-304): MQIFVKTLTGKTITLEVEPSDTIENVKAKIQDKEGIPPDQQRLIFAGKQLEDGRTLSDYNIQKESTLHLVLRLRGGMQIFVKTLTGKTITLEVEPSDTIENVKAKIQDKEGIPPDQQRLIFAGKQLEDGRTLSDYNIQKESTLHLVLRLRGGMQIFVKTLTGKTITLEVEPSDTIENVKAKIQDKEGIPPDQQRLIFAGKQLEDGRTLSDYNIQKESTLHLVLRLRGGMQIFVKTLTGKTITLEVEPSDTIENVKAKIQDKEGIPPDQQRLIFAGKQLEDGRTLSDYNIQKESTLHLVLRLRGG

B1: UBQLN2 450-624 (domain or fragment)
chain: RAMQALMQIQQGLQTLATEAPGLIPSFTPGVGVGVLGTAIGPVGPVTPIGPIGPIVPFTPIGPIGPIGPTGPAAPPGSTGSGGPTGPTVSSAAPSETTSPTSESGPNQQFIQQMVQALAGANAPQLPNPEVRFQQQLEQLNAMGFLNREANLQALIATGGDINAAIERLLGSQPS
Consider B1, for which the equilibrium dissociation constant (Kd) (commonly the equilibrium constant for the complex coming apart) in the assay with M1-linked Ub4 [1] came out at 12.8 µM; with HOTag6-G10-Ub [2], 8.8 µM.

B2: fluorescently-labeled UBQLN2 450-624 (S624C, Alexa Fluor 488) (domain or fragment)
chain: RAMQALMQIQQGLQTLATEAPGLIPSFTPGVGVGVLGTAIGPVGPVTPIGPIGPIVPFTPIGPIGPIGPTGPAAPPGSTGSGGPTGPTVSSAAPSETTSPTSESGPNQQFIQQMVQALAGANAPQLPNPEVRFQQQLEQLNAMGFLNREANLQALIATGGDINAAIERLLGSQPC
modifications: Alexa Fluor 488 C5 Maleimide label (S624C mutation)
As to B2, the dissociation constant (Kd) in the assay with M1-linked Ub4 [3] was found to be 5.1 µM; with HOTag6-G10-Ub [4], 7 µM; in the assay with ubiquitin (Ub), 3.4 µM.

These data come from paper doi:10.1101/2021.11.12.467822 (bioRxiv, 2021).
